Results taken from patent publication US20210087291A1 (Hoffmann-La Roche, published 2021).
Positions count from the first letter of the chain named. Where “and” joins values, the source holds several entries; their conditions need not be identical. Identical values can stand only once.

T1: cynomolgus Tim3 (ELISA) (cynomolgus, UniProt A0A2K5U3G7 22-193)
T1 construct: also called Biochem Cyno; cyno TIM3
T1 sequence: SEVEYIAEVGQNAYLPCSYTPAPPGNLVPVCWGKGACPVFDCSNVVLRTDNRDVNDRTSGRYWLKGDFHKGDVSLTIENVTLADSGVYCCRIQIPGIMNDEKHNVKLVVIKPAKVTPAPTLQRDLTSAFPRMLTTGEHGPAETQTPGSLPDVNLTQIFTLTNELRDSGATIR

T2: monomeric cyno Tim3-ECD (cynomolgus, UniProt A0A2K5U3G7 22-195)
T2 construct: extracellular domain; also called cyTim3
T2 sequence: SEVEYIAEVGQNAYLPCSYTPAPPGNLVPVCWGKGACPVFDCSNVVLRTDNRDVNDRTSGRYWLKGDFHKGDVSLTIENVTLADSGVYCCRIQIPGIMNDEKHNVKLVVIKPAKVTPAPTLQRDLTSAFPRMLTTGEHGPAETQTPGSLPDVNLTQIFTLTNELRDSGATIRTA

B1: 9D11 Fab (Fab, V domains shown)
VH: QVQLVQSGAEVKKPGASVKVSCKASGYTFTSYYMHWVRQAPGQGLEWMGIINPSGGPTSYAQKFQGRVTMTRDTSTSTVYMELSSLRSEDTAVYYCARGDFAWLDYWGQGTLVTVSS
VL: not shown
B2: 36F2 Fab (Fab, V domains shown)
VH: QVQLVQSGAEVKKPGASVKVSCKASGYTFTSYYMHWVRQAPGQGLEWMGIINPSGGSTSYAQKFQGRVTMTHDTSTSTVYMELSSLRSEDTAVYYCARSFFTGFHLDYWGQGTLVTVSS
VL: EIVLTQSPGTLSLSPGERATLSCRASQSVSSSYLAWYQQKPGQAPRLLIYGASSRATGIPDRFSGSGSGTDFTLTISRLEPEDFAVYYCQQYTNEHYYTFGQGTKVEIK
B3: Tim3_0026 (antibody, V domains shown)
VH: QIQLVQSGPELKKPGETVKISCKASGYTFTDYSMHWVKQAPGRGLKWMGYINTETYEPTFGADFKGRFAFSLDTSATTAYLQINSLKTEDTATFFCGGGGYPAYWGQGTVVIVSA
VL: DVLMTQTPLSLPVSLGDQASISCRSSRTILHSSGNTYLEWYLQKPGQSPKLLIYKVSNRFSGVPDRFSGSGSGTDFTLNISRVEAEDLGVYYCFQDSHVPFTFGTGTKLEIK
B4: Tim3_0030 (antibody, V domains shown)
VH: QIQLVQSGPELKKPGETVKISCKASGYPFSEYSIHWVKQAPGKGLKWMVYVNTETGQPIVGDDFRGRFVLSLETSASTAYLQINNLKNEDTATYFCGGGGYPAYWGQGTLVTVSA
VL: B3 VL with T28S, L30V
B5: 20G6 IgG (antibody, V domains shown)
VH: QVQLVQSGAEVKKPGASVKVSCKASGYTFTSYYMHWVRQAPGQGLEWMGIINPSGGSTSYAQKFQGRVTMTRDTSTSTVYMELSSLRSEDTAVYYCARGEWIRYYHFDYWGQGTLVTVSS
VL: QAVVTQEPSLTVSPGGTVTLTCGSSTGAVTTSNYANWVQEKPGQAFRGLIGGTNKRAPGTPARFSGSLLGGKAALTLSGAQPEDEAEYYCALWYSNLWVFGGGTKLTVL
notes: human IgG1
B6: 14E4 IgG (antibody, V domains shown)
VH: not shown
VL: EIVLTQSPGTLSLSPGERATLSCRASQSVSSSYLAWYQQKPGQAPRLLIYGASSRATGIPDRFSGSGSGTDSTLTISRLEPEDFAVYYCQQPTSSPITFGQGTKVEIK
notes: human IgG1
B7: 14E4 Fab (Fab, V domains shown)
VH: not shown
VL: B6 VL
B8: Tim3_0016 variant (Tim3_0018) (antibody, V domains shown)
VH: QVTLKESGPGILQPSQTLSLTCSFSGFSLSTSGMSVGWIRQPSGKGLEWLAHIWLNDDVFFNPALKRRLTISKDTSNNQVFLQIASVVTADTATYYCVRANGYLYALDYWGQGISVTVSS
VL: QIVLTQSPAIMSASPGQKVTITCSASSSVNYTQWYQQKLGSSPKLWIYDAFKLAPGVPARFSGSGTGTSYSLTISSMEAEDAASYFCHQWSSYPWTFGGGTKLEIK
notes: also called TIM3-0016 variant (0018); aTim3 0018

Tests used:
[1] = molecular target: T3, human FolR1 ECD-AcTev-Fcknob-Avi tag + Fc hole, biotinylated monomeric Fc fusion (human, UniProt P0DOX5 223-449 = IgG part); assay: SPR ProteOn, Fab analyte
T3 construct: also called huFolR1; huFolR1-Fc
Description: (§1) Immobilization of antigens (ligand): Recombinant antigens were diluted with PBST (10 mM phosphate, 150 mM sodium chloride pH 7.4, 0.005% Tween 20) to 10 μg/ml, then injected at 30 μl/minute in vertical orientation. Injection of analytes: For ‘one-shot kinetics’ measurements, injection direction was changed to horizontal orientation, two-fold dilution series of purified Fab (varying concentration ranges) were injected simultaneously along separate channels 1-5, with association times of 150 or 200 s, and dissociation times of 200 or 600 s, respectively. Buffer (PBST) was injected along the sixth channel to provide an “in-line” blank for referencing. Association rate constants (kₒₙ) and dissociation rate constants (koff) were calculated using a simple one-to-one Langmuir binding model in ProteOn Manager v3.1 software by simultaneously fitting the association and dissociation sensorgrams. The equilibrium dissociation constant (KD) was calculated as the ratio koff/kₒₙ.

[2] = molecular target: T4, cynomolgus FolR1 ECD-AcTev-Fcknob-Avi tag + Fc hole, biotinylated monomeric Fc fusion (cynomolgus, UniProt P0DOX5 223-449 = IgG part); assay: SPR ProteOn, Fab analyte
T4 construct: also called cyFolR1; cyno FolR1-Fc
Description: as §1

[3] = molecular target: T5, murine FolR1 ECD-AcTev-Fcknob-Avitag + Fc hole, biotinylated monomeric Fc fusion (murine, UniProt P0DOX5 223-449 = IgG part); assay: SPR ProteOn, Fab analyte
T5 construct: also called muFolR1; murine FolR1-Fc
Description: as §1

[4] = molecular target: T6, human FolR2 ECD-AcTev-Fcknob-Avi tag + Fc hole, biotinylated monomeric Fc fusion (human, UniProt P0DOX5 223-449 = IgG part); assay: SPR ProteOn, Fab analyte
T6 construct: also called huFolR2; FolR2-Fc
Description: as §1

[5] = molecular target: T7, human FolR3 ECD-AcTev-Fcknob-Avi tag + Fc hole, biotinylated monomeric Fc fusion (human, UniProt P0DOX5 223-449 = IgG part); assay: SPR ProteOn, Fab analyte
T7 construct: also called huFolR3; FolR3-Fc
Description: as §1

[6] = molecular target: T8, human TIM-3 on cells (human, UniProt Q8TDQ0 22-301); assay: cell-based or functional assay
[7] = molecular target: T8, human TIM-3 on cells; assay: cell-based or functional assay; remark: listed apart in the source
[8] = molecular target: T9, huFc fused dimeric human Tim3-ECD (human, UniProt Q8TDQ0 22-202); assay: SPR Biacore, bivalent Tim3
T9 construct: also called huTim3Fc; bivalent Tim3
Description: (§2) Therefore, an anti-mouse IgG was immobilized by amine coupling to the surface of a (Biacore) CM5 sensor chip. The samples were then captured and hu/cy Tim3-ECD was bound to them. The sensor chip surface was regenerated after each analysis cycle. The equilibrium constant KD was finally gained by fitting the data to a 1:1 langmuir interaction model.
(§3) Flow cell temperature was set to 25° C. and sample compartment temperature to 12° C. The system was primed with running buffer. The samples were injected for 30 seconds with a concentration of 200 μg/ml and bound to the spots 1 and 5 of each flow cell, allowing the measurement of eight samples in parallel. Then a complete set of different (monomeric cyno, monomeric human and huFc fused dimeric human Tim3-ECD) concentrations (s. Table X) was injected over each sample for 240 s followed by a dissociation time of 30/1800 s (s. Table 1). Each analysis cycle (sample capture, spot 1 and 5—Tim3 ECD injection) was then regenerated with a 30 seconds long injection of Glycine-HCl pH 1.7. The flow rate was set to 30 μl/min for the whole run. Finally, the double referenced data was fitted to a 1:1 langmuir interaction model with the Biacore B4000 Evaluation Software.

[9] = molecular target: T10, Tim3-ECD-His-Biotin (human, UniProt Q8TDQ0 22-202); assay: ELISA on Tim3-ECD-His-Biotin
T10 construct: also called human Tim3 (ELISA); Biochem Human
Description: After washing (3×90 μl/well with PBST-buffer) 25 μl aTim3 samples or diluted (1:2 steps) reference antibody aTim3 F38-2E2 (Biolegend) was added and incubated 1 h at RT. After washing (3×90 μl/well with PBST-buffer) 25 μl/well sheep-anti-mouse-POD (GE NA9310V) was added in 1:9000 dilution and incubated at RT for 1 h while shaking at 400 rpm rotation. After washing (4×90 μl/well with PBST-buffer) 25 μl/well TMB substrate (Calbiochem, #CL07) was added and incubated until OD 1.5-2.5. Then the reaction was stopped by addition of 25 μl/well 1N HCL-solution.

[10] = molecular target: T11, monomeric human Tim3-ECD (human, UniProt Q8TDQ0 22-202); assay: SPR Biacore, monovalent Tim3
T11 construct: also called huTim3
Description: as §2, §3

[11] = molecular target: T8, human TIM-3 on cells; assay: cell ELISA, CHO-K1 expressing human Tim3
Description: Then the reaction was stopped by addition of 25 μl/well 1N HCL-solution.

[12] = molecular target: T12, cynomolgus TIM-3 on isolated cyno CD14+ monocytes (cynomolgus); assay: flow cytometry, cyno CD14+ monocytes cyno1
T12 construct: whole, on cells
Excerpt: (§4) CD14+ Monocytes were isolated from cynomolgus monkey anticoagulated peripheral blood (Covance) by density gradient centrifugation using Ficoll-Paque (GE Healthcare) (see General Protocols in the User Manuals or visit www.miltenyibiotec.com/protocols) and subsequent positive selection via NHP CD14 MicroBeads. First the CD14+ cells are magnetically labeled with CD14 MicroBeads. Then the cell suspension is loaded onto a MACS® Column which is placed in the magnetic field of a MACS Separator. The magnetically labeled CD14+ cells are retained in the column. The unlabeled cells run through, this cell fraction is depleted of CD14+ cells. After removal of the column from the magnetic field, the magnetically retained CD14+ cells can be eluted as the positively selected cell fraction. After centrifugation at 200×g for 10 min at room temperature the monocytes were harvested and used directly in binding assay or resuspended in freezing medium (10% DMSO, 90% FCS) at 1.0E+07 cells/ml and stored in liquid nitrogen.
(§5) 1×10⁵ CD14+ isolated cyno monocytes (50 μl/well) were put into 98 well-v bottom MTP in fresh culture medium and incubated with Redimune® NF Liquid for 15 min at RT to block unspecific binding. Than 50 μl/well of Alexa488 labeled anti-TIM3 (10 μg/ml in cell culture medium) were added and incubated for 1 h at 4° C. After washing and centrifugation MFI signals of stained cells were analyzed by BD Biosciences FACSCanto flow cytometer.

[13] = molecular target: T12, cynomolgus TIM-3 on isolated cyno CD14+ …; assay: flow cytometry, cyno CD14+ monocytes cyno2
Excerpt: as §4, §5

[14] = molecular target: T12, cynomolgus TIM-3 on isolated cyno CD14+ …; assay: flow cytometry, cyno CD14+ monocytes cyno3
Excerpt: as §4, §5

[15] = molecular target: T8, human TIM-3 on cells; assay: flow cytometry, human CD14+ monocytes donor1
Excerpt: (§6) CD14+ Monocytes were isolated from anticoagulated peripheral blood of healthy donors by density gradient centrifugation using Ficoll-Paque (GE Healthcare) (see General Protocols in the User Manuals or visit www.miltenyibiotec.com/protocols) and subsequent positive selection via CD14 MicroBeads. First the CD14+ cells are magnetically labeled with CD14 MicroBeads. Then the cell suspension is loaded onto a MACS® Column which is placed in the magnetic field of a MACS Separator. The magnetically labeled CD14+ cells are retained in the column. The unlabeled cells run through, this cell fraction is depleted of CD14+ cells. After removal of the column from the magnetic field, the magnetically retained CD14+ cells can be eluted as the positively selected cell fraction. After centrifugation at 200×g for 10 min at room temperature the monocytes were harvested and used directly in binding assay or resuspended in freezing medium (10% DMSO, 90% FCS) at 1.0E+07 cells/ml and stored in liquid nitrogen.
(§7) 1×10⁵ CD14+ isolated human monocytes (50 μl/well) were put into 98 well-v bottom MTP in fresh culture medium and incubated with Redimune® NF Liquid for 15 min at RT to block unspecific binding. […] After washing and centrifugation MFI signals of stained cells were analyzed by BD Biosciences FACSCanto flow cytometer.

[16] = molecular target: T8, human TIM-3 on cells; assay: flow cytometry, human CD14+ monocytes donor2
Excerpt: as §6, §7

[17] = molecular target: T8, human TIM-3 on cells; assay: flow cytometry, human CD14+ monocytes donor3
Excerpt: as §6, §7

[18] = molecular target: T11, monomeric human Tim3-ECD; assay: SPR Biacore, antibody captured by anti-mouse IgG
Description: as §2, §3

[19] = molecular target: T9, huFc fused dimeric human Tim3-ECD; assay: SPR Biacore, antibody captured by anti-mouse IgG
Description: as §2, §3

[20] = molecular target: T3, human FolR1 ECD-AcTev-Fcknob-Avi tag + …; assay: SPR, IgG single injection
[21] = molecular target: T4, cynomolgus FolR1 ECD-AcTev-Fcknob-Avi …; assay: SPR, IgG single injection
[22] = molecular target: T6, human FolR2 ECD-AcTev-Fcknob-Avi tag + …; assay: SPR, IgG single injection
[23] = molecular target: T7, human FolR3 ECD-AcTev-Fcknob-Avi tag + …; assay: SPR, IgG single injection
[24] = molecular target: T13, human FolR1 on cells (human, UniProt P15328 25-234); assay: flow cytometry on HeLa cells (human FolR1), fluorescently labeled anti-human secondary antibody
T13 construct: also called FolR1 on HeLa, SKOV3, HT-29 tumor cells; HEK cells transfected with human FolR1
T13 sequence (P15328 25-234 limits assumed): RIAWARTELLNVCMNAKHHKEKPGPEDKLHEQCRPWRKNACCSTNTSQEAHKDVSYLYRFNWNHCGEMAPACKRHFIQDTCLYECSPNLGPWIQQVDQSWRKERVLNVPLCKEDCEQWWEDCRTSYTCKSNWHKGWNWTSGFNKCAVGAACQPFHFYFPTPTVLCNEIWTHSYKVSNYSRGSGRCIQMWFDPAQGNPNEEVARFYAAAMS
Description: Binding of newly generated FolR1 binders to FolR1 expressed on HeLa cells were determined by flow cytometry. Bound antibodies were detected with a fluorescently labeled anti-human secondary antibody.
The identified binders were converted into a human IgG1 format and binding to FolR1 high expressing HeLa cells was addressed.

[25] = molecular target: T1, cynomolgus Tim3 (ELISA); assay: ELISA, cyno Tim3
[26] = molecular target: T10, Tim3-ECD-His-Biotin; assay: ELISA, human Tim3
[27] = molecular target: T8, human TIM-3 on cells; assay: cell ELISA, CHO-Tim3
[28] = molecular target: T2, monomeric cyno Tim3-ECD; assay: SPR Biacore, antibody captured by anti-mouse IgG
Description: as §2, §3

[29] = molecular target: T1, cynomolgus Tim3 (ELISA); assay: ELISA, cyno Tim3; EC50 relative to the sample's max value
[30] = molecular target: T10, Tim3-ECD-His-Biotin; assay: ELISA, human Tim3; EC50 relative to the sample's max value
[31] = molecular target: T8, human TIM-3 on cells; assay: cell ELISA, CHO-Tim3; EC50 relative to the sample's max value

| Binder | binding result [4] | binding result [5] | IFN-gamma release in MLR at 1 µg/ml, % of IL-2 control [6] [%] | IFN-gamma release in MLR at 10 µg/ml, % of IL-2 control [6] [%] | IFN-gamma release in MLR at 40 µg/ml, % of IL-2 control [6] [%] | MFI [12] [MFI] | MFI [13] [MFI] | MFI [14] [MFI] | specific binding MFI [15] [MFI] | specific binding MFI [16] [MFI] | specific binding MFI [17] [MFI] | Kd [18] [nM] | Kd [19] [nM] | also measured |
| --- | --- | --- | --- | --- | --- | --- | --- | --- | --- | --- | --- | --- | --- | --- |
| B1 | no binding | no binding | – | – | – | – | – | – | – | – | – | – | – | Kd [1]: 8.64 nM; Kd [2]: 5.29 nM; binding result [3]: no binding |
| B2 | no binding | no binding | – | – | – | – | – | – | – | – | – | – | – | Kd [1]: 1810 nM; Kd [2]: 1640 nM; Kd [3]: 737 nM |
| B3 | – | – | 18 | 16 | 25 | 137 | 184 | 197 | 1660 | 1020 | 900 | 6.23 | 1.52 | IC50 cytotoxicity (anti-mFc Fab-PE24 sandwich), RPMI-8226 [7]: > 64 nM; Kd [8]: 1.5 nM; EC50 [9]: 0.047 µg/mL; Kd [10]: 6.2 nM; EC50 [11]: 0.069 µg/mL |
| B4 | – | – | 3 | 4 | 14 | 119 | 163 | 144 | 1410 | 419 | 466 | 3.11 | 1.28 | IC50 cytotoxicity (anti-mFc Fab-PE24 sandwich), RPMI-8226 [7]: > 64 nM |
| B5 | – | – | – | – | – | – | – | – | – | – | – | – | – | binding result [20]: no binding (tested: 500 nM); binding result [21]: no binding (tested: 500 nM); binding result [22]: no binding (tested: 500 nM); binding result [23]: no binding (tested: 500 nM); binding result [24]: binds |
| B6 | – | – | – | – | – | – | – | – | – | – | – | – | – | binding result [20]: no binding (tested: 500 nM); binding result [21]: no binding (tested: 500 nM); binding result [22]: no binding (tested: 500 nM); binding result [23]: no binding (tested: 500 nM) |
| B7 | no binding | no binding | – | – | – | – | – | – | – | – | – | – | – | binding result [1]: no binding; binding result [2]: no binding |
| B8 | – | – | 12 | 30 | 36 | 301 | 480 | 417 | 2330 | 1820 | 1940 | 3.4 | 1.11 | inflexion point [25]: 14.6 ng/mL; inflexion point [26]: 15.3 ng/mL; inflexion point [27]: 29.4 ng/mL; Kd [8]: 1.1 nM; EC50 [9]: 0.56 nM and 0.094 µg/mL; Kd [10]: 3.4 nM; EC50 [11]: 0.52 nM and 0.087 µg/mL; Kd [28]: 41.9 nM; EC50 [29]: 0.0146 µg/mL; EC50 [30]: 0.0161 µg/mL; EC50 [31]: 0.0264 µg/mL |
